B1: J-19.h4 (antibody, human IgG4 S228P, kappa, V domains shown)
VH: QVTLKESGPALVKPTHTLTLTCTFSGFSLNTYAMGVSWIRQPPGKALEWLASIWWNGNKYNNPSLKSRLTISKDTSKNQVVLTMTNMDPEDTATFYCAHSRIIRFTDYVMDAWGRGTTVTVSS
VL: DIVMTQSPSSLSASVGDTVTITCRASEDIYNDLAWYQQKPGKAPQLLLYNANSLHTGVPSRFSGSGSGTDYTLTISTLQPEDFATYYCQQYYDYPLTFGPGTKVHIKR
B2: J-19.h7 (antibody, human IgG4 S228P, kappa, V domains shown)
VH: QITLKESGPTLVKPTQTLTLTCTFSGFSLNTYAMGVSWIRQPPGKALEWLASIWWNGNKYNNPSLKSRLTVTKDTSKNQVVLTMTNMDPVDTATYYCAHSRIIEFTDYVMDAWGQGTLVTVSS
VL: DIQMTQSPSSLSTSVGDRVTITCRASEDIYNDLAWYQQKPGKAPKLLIYNANSLHTGVASRFSGSGSGTDFTFTISSLQPEDVATYFCQQYYDYPLTFGQGTKLEIKR
B3: J-19.h1 (antibody, human IgG4 S228P, kappa, V domains shown)
VH: QITLKESGPTLVKPTQTLTLTCTFSGFSLNTYAMGVSWIRQPPGKALEWLASIWWNGNKYNNPSLKSRLTVTKDTSKNQVVLTMTNMDPVDTATYYCAHSRIIRFTDYVMDAWGQGTLVTVSS
VL: DIQMTQSPSSLSTSVGDRVTITCRASEDIYNDLAWYQQKPGKAPKLLIYNANSLHTGVASRFSGSGSGTDFTFTISSLQPEDVATYFCQQYYDYPLTFGQGTKLEIKR
B4: J-19.h5 (antibody, human IgG4 S228P, kappa, V domains shown)
VH: QITLKESGPTLVKPTQTLTLTCTFSGFSLNTYAMGVSWIRQPPGKALEWLASIWWNGNKYNNPSLKSRLTVTKDTSKNQVVLTMTNMDPVDTATYYCAHSRIIAFTDYVMDAWGQGTLVTVSS
VL: DIQMTQSPSSLSTSVGDRVTITCRASEDIYNDLAWYQQKPGKAPKLLIYNANSLHTGVASRFSGSGSGTDFTFTISSLQPEDVATYFCQQYYDYPLTFGQGTKLEIKR
B5: J-19.h6 (antibody, human IgG4 S228P, kappa, V domains shown)
VH: QITLKESGPTLVKPTQTLTLTCTFSGFSLNTYAMGVSWIRQPPGKALEWLASIWWNGNKYNNPSLKSRLTVTKDTSKNQVVLTMTNMDPVDTATYYCAHSRIIDFTDYVMDAWGQGTLVTVSS
VL: DIQMTQSPSSLSTSVGDRVTITCRASEDIYNDLAWYQQKPGKAPKLLIYNANSLHTGVASRFSGSGSGTDFTFTISSLQPEDVATYFCQQYYDYPLTFGQGTKLEIKR
B6: J-04 (antibody, human IgG4 S228P, kappa, V domains shown)
VH: QVQLQQSGAELVRPGASVTLSCKASGYTFADYEIHWVKQTPVHGLEWIGAIDPETGGTAYNQKFKGKAILTADKSSSTAYMELRSLTSEDSAVYYCTRYYDYDDAMDYWGQGTSVTVSS
VL: QIVLTQSPAIMSASPGEKVTMTCSASSSVSFMHWYQQKSGTSPKRWIYGTSKLASGVPARFSGSGSGTSYSLTISSMEAEDAATYYCQQWNGNPFTFGSGTKLETKR
B7: J-17 (antibody, human IgG4 S228P, kappa, V domains shown)
VH: QIQLVQSGPELKKPGETVKISCKASGYTFTTYGLSWVKQTPGKGLKWMGWINTYSGVPTYTDDFKGRFAFSLETSASTAYLQINNLKNEDTATYFCARPYDFDQVGFAYWGQGTLVTVSA
VL: SIVMTQTPKFLLVSAGDRVSITCKASQTVSSDVAWYQQKAGQSPKLLIYYASNRYTGVPDRFTGSGYGTDFTFTISTVQAEDLAVYFCQQDYSSPFTFGGGSKLEIKR
B8: J-19 (antibody, human IgG4 S228P, kappa, V domains shown)
VH: QVTLKESGPGILQPSHTLSLTCSFSGFSLNTYAMGVSWIRQPSGKGLEWLASIWWNGNKYNNPSLKSRLTVSKDTSNNQAFLKVTSVDTADTATYYCAHSRIIRFTDYVMDAWGQGASVTVSS
VL: DIQMTQSPASLSTFLGEPVTIECRASEDIYNDLAWYQQKPGKSPQLLIYNANSLHTGVPSRFSGSGSGTQYSLKINSLQSEDVASYFCQQYYDYPLTFGSGTKLEIKR
B9: J-11 (antibody, human IgG4 S228P, kappa, V domains shown)
VH: QVQLQQSGAELMKPGASVKLSCKATGYILTGYWIEWVKQRPGHGLEWIGEILPGSGSTNYNENFKGKATFTADTSSNTAYMQLSSLTTEDSAIYYCARAVLGYFDYWGQGTTLTVSS
VL: DIVMTQSHKFMSTSVGDRVSITCKASQDVSTAVAWYQQKPGQSPKLLIYWASTRHTGVPDRFTGSGSGTDYTLTISSVQAEDLALYYCHQHYSTYTFGGGTKLEIKR

How the values were obtained:
human LILRA5 (human) = human LILRA5 (human) (UniProt A6NI73); assay: flow cytometry, LILRA5 CHOs
Chain of human LILRA5 (human) (A6NI73 42-299 limits assumed): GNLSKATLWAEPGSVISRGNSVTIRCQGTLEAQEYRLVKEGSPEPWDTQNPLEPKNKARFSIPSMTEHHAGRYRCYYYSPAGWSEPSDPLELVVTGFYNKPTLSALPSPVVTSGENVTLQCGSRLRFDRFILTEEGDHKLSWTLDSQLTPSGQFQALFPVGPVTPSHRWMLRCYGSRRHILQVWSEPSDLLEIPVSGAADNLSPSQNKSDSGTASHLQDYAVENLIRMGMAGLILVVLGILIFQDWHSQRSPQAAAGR

human LILRB4 (human) = human LILRB4 (human) (UniProt Q8NHJ6); assay: flow cytometry, LILRB4 CHOs
human LILRB2 (human) [1] = biological target: human LILRB2 (human) (UniProt Q8N423); assay: SPR, SierraSensor MASS-2; antibody captured on anti-human Fc chip, LILRB2 65 to 0.089 nM, duplicates
human LILRB2 (human) [2] = biological target: human LILRB2 (human) (UniProt Q8N423); assay: SPR, SierraSensor MASS-2; antibody captured on anti-human Fc chip, LILRB2 65 to 0.089 nM, duplicates; the reference itself
human LILRB2 (human) [3] = biological target: human LILRB2 (human) (UniProt Q8N423); assay: SPR, SierraSensor MASS-2; antibody captured on anti-human Fc chip, LILRB2 65 to 0.089 nM, triplicates
human LILRB2 (human) [4] = biological target: human LILRB2 (human) (UniProt Q8N423); assay: BLI ForteBio Octet Red96; antibody on anti-human capture sensor, LILRB2 at 50 nM and 5 nM
human LILRB2 (human) [5] = biological target: human LILRB2 (human) (UniProt Q8N423); assay: BLI Octet sandwich binning; competitor (antibody #1 on sensor) J-07
human LILRB2 (human) [6] = biological target: human LILRB2 (human) (UniProt Q8N423); assay: BLI Octet sandwich binning; competitor (antibody #1 on sensor) J-17
human LILRB2 (human) [7] = biological target: human LILRB2 (human) (UniProt Q8N423); assay: BLI Octet sandwich binning; competitor (antibody #1 on sensor) J-19
human LILRB2 (human) [8] = biological target: human LILRB2 (human) (UniProt Q8N423); assay: BLI Octet sandwich binning; competitor (antibody #1 on sensor) J-03
human LILRB2 (human) [9] = biological target: human LILRB2 (human) (UniProt Q8N423); assay: BLI Octet sandwich binning; competitor (antibody #1 on sensor) J-11
human LILRA4 (human) = human LILRA4 (human) (UniProt P59901); assay: flow cytometry, LILRA4 CHOs
Chain of human LILRA4 (human) (P59901 other isoform, or with tags, fused parts or gaps limits assumed): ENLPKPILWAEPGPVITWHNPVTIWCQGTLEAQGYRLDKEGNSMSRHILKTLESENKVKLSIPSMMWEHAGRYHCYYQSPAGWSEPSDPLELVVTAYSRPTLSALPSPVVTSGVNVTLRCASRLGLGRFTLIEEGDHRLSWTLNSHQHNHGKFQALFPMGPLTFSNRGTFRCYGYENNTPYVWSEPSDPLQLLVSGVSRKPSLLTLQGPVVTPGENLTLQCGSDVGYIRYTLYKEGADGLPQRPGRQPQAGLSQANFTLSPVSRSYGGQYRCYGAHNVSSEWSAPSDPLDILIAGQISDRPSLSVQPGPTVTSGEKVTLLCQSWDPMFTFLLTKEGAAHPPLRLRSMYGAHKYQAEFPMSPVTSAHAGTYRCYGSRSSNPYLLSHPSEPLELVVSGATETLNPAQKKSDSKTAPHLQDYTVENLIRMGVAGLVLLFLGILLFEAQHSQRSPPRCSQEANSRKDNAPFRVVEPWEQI

human LILRB2 (human) [10] = biological target: human LILRB2 (human) (UniProt Q8N423); assay: BLI Octet sandwich binning; competitor (antibody #1 on sensor) J-04
human LILRB2 (human) [11] = biological target: human LILRB2 (human) (UniProt Q8N423); assay: BLI Octet sandwich binning; competitor (antibody #1 on sensor) J-16
human LILRA1 (human) = human LILRA1 (human) (UniProt O75019); assay: flow cytometry, LILRA1 CHOs
Chain of human LILRA1 (human) (O75019 17-489 limits assumed): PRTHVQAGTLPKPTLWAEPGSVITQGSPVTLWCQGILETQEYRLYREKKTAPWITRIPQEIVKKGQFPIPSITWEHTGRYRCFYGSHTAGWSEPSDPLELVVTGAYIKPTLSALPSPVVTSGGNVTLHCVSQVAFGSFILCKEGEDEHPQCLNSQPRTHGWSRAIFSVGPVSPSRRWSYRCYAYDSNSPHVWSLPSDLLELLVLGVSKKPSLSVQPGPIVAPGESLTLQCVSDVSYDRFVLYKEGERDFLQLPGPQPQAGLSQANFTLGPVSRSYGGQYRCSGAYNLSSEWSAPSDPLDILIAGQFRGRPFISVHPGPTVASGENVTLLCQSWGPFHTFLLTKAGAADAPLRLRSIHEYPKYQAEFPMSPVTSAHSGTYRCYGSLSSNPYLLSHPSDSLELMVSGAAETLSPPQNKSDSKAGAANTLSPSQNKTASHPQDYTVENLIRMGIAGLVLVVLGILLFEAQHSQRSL

| Binder | response of antibody #2 (human LILRB2 (human) [5]) | response of antibody #2 (human LILRB2 (human) [6]) | response of antibody #2 (human LILRB2 (human) [7]) | response of antibody #2 (human LILRB2 (human) [8]) | response of antibody #2 (human LILRB2 (human) [9]) | response of antibody #2 (human LILRB2 (human) [10]) | response of antibody #2 (human LILRB2 (human) [11]) | further results |
| --- | --- | --- | --- | --- | --- | --- | --- | --- |
| B1 |  |  |  |  |  |  |  | binding (fold over iso) (fold over iso) (human LILRA5 (human)): 2.14; binding (fold over iso) (fold over iso) (human LILRB4 (human)): 2.02 |
| B2 |  |  |  |  |  |  |  | Fold difference over J-19.h1 (human LILRB2 (human) [1]): 2.73 fold; Kd (human LILRB2 (human) [1]): 0.912 nM; koff (human LILRB2 (human) [1]): 0.000788 s⁻¹; kon (human LILRB2 (human) [1]): 865000 M⁻¹ s⁻¹ |
| B3 |  |  |  |  |  |  |  | Fold difference over J-19.h1 (human LILRB2 (human) [2]): 1 fold; Kd (human LILRB2 (human) [1]): 2.49 nM; koff (human LILRB2 (human) [1]): 0.00176 s⁻¹; kon (human LILRB2 (human) [1]): 705000 M⁻¹ s⁻¹ |
| B4 |  |  |  |  |  |  |  | Fold difference over J-19.h1 (human LILRB2 (human) [3]): 1.91 fold; Kd (human LILRB2 (human) [3]): 1.31 nM; koff (human LILRB2 (human) [3]): 0.00115 s⁻¹; kon (human LILRB2 (human) [3]): 876000 M⁻¹ s⁻¹; fold higher affinity compared to J-19.h1 (human LILRB2 (human) [4]): 2 fold |
| B5 |  |  |  |  |  |  |  | Fold difference over J-19.h1 (human LILRB2 (human) [3]): 3.47 fold; Kd (human LILRB2 (human) [3]): 0.718 nM; koff (human LILRB2 (human) [3]): 0.000592 s⁻¹; kon (human LILRB2 (human) [3]): 825000 M⁻¹ s⁻¹ |
| B6 | -0.3 | 0.46 | 0.54 | -0.07 | 0.54 | -0.1 | -0.31 | binding (fold over iso) (fold over iso) (human LILRA4 (human)): 2.07 |
| B7 | 0.04 | -0.11 | -0.21 | 0.05 | -0.39 | 0.42 | 0.09 | binding (fold over iso) (fold over iso) (human LILRA1 (human)): 7.31 |
| B8 | 0.27 | -0.1 | -0.21 | 0.15 | 0.71 | 0.67 | 0.47 |  |
| B9 | 0.1 | -0.27 | 0.28 | 0.01 | -0.24 | 0.51 | 0.3 |  |
